Assay results from patent US20230250154A1 (CYTONICS, published 2023).

Tests used:
Test in all cases: cell-based or functional assay
Elastase = molecular target: Elastase
bovine trypsin = bovine trypsin (bovine, UniProt P00760 24-246)
chymotrypsin = molecular target: chymotrypsin
MMP2 = molecular target: T1, MMP2 (human, UniProt P08253 110-660, limits assumed)
T1 sequence (looked up): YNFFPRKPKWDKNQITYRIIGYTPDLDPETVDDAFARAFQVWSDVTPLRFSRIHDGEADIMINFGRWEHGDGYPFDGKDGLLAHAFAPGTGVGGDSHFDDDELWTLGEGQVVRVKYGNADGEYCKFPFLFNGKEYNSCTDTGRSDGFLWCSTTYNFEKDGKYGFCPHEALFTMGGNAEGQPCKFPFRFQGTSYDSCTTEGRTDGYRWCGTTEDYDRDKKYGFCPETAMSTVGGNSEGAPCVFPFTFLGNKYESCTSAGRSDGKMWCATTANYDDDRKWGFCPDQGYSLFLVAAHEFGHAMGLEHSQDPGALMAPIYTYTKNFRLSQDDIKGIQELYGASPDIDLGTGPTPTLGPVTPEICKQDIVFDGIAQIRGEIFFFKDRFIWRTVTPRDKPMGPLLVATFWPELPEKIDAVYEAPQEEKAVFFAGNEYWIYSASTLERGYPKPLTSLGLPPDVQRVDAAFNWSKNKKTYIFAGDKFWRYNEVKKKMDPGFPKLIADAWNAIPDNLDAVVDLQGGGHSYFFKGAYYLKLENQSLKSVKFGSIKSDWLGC

ADAMTS4 = molecular target: T2, ADAMTS4 (human, UniProt O75173 213-685, limits assumed)
T2 sequence (looked up): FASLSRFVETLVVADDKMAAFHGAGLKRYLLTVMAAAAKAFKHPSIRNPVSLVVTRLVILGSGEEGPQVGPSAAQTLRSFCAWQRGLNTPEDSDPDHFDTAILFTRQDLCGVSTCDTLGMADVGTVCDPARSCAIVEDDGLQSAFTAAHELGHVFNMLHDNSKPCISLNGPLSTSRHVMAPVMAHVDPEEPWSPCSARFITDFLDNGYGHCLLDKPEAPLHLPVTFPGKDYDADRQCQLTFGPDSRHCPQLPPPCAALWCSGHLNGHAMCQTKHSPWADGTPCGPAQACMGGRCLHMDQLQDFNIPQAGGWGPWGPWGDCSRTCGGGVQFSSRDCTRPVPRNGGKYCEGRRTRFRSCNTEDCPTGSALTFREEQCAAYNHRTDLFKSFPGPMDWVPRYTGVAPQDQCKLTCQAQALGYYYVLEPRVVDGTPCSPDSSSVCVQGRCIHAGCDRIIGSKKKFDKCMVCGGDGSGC

MMP1 = molecular target: T3, MMP1 (human, UniProt P03956 100-469, limits assumed)
T3 sequence (looked up): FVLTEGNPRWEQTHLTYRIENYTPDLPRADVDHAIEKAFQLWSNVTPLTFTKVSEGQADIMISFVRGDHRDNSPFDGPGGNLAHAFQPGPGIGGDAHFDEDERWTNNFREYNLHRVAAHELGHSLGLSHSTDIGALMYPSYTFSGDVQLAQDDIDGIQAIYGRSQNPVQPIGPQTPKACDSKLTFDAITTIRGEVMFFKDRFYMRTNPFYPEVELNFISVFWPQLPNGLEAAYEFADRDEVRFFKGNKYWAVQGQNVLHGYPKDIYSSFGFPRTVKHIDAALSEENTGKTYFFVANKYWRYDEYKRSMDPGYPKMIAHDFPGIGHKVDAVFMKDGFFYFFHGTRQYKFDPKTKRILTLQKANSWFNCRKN

ADAMTS5 = molecular target: T4, ADAMTS5 (human, UniProt Q9UNA0 262-622, limits assumed)
T4 sequence (looked up): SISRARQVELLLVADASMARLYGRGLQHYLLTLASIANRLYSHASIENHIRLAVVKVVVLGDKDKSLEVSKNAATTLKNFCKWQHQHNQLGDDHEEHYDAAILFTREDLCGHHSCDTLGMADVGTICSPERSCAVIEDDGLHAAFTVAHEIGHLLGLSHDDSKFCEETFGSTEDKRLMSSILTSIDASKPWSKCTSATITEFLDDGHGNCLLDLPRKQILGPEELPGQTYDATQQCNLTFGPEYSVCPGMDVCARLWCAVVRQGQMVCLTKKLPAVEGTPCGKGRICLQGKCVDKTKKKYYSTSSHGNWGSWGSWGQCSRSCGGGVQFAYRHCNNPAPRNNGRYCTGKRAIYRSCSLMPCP

MMP12 = MMP12 (human, UniProt P39900 106-470, limits assumed)
MMP12, sequence (P39900 106-470 limits assumed): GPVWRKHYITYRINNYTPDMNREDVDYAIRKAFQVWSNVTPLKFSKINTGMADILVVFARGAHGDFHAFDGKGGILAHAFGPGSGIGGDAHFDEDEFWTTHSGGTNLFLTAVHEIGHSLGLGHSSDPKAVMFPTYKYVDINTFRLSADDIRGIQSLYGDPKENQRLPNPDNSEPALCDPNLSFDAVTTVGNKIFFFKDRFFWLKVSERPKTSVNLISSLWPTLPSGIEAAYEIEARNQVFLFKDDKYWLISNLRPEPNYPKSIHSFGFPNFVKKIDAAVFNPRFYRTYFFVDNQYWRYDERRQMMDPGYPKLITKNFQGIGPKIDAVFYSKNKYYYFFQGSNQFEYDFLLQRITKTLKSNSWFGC

MMP8 = MMP8 (human, UniProt P22894 101-467, limits assumed)
MMP8, sequence (P22894 101-467 limits assumed): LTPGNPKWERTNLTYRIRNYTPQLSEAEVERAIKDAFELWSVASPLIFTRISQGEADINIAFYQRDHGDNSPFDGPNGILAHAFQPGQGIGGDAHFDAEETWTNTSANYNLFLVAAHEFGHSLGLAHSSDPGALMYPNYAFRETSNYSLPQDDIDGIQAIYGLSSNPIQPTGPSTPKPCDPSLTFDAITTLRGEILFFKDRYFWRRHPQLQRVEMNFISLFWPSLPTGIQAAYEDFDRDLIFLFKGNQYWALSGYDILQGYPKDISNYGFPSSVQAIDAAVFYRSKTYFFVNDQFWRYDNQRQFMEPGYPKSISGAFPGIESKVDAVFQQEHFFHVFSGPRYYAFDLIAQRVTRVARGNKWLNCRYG

MMP13 = MMP13 (human, UniProt P45452 104-471, limits assumed)
MMP9 = MMP9 (human, UniProt P14780 107-707, limits assumed)
MMP9, sequence (P14780 107-707 limits assumed): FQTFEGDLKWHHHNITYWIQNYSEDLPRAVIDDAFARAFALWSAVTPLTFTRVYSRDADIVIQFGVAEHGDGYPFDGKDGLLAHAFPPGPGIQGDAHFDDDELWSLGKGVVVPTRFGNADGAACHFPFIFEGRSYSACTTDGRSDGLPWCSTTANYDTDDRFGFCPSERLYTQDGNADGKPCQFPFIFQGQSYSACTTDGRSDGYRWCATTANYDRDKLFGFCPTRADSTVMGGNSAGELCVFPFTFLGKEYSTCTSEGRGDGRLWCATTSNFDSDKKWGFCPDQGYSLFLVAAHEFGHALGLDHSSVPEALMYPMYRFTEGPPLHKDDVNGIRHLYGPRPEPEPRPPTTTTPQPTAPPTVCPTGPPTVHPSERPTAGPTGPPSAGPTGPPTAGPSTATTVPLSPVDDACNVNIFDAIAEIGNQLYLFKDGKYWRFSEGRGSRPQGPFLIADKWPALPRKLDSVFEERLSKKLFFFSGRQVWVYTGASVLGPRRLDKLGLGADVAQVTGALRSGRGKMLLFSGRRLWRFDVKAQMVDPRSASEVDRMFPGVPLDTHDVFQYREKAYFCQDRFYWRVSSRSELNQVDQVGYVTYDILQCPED

MMP3 = MMP3 (human, UniProt P08254 100-477, limits assumed)
MMP3, sequence (P08254 100-477 limits assumed): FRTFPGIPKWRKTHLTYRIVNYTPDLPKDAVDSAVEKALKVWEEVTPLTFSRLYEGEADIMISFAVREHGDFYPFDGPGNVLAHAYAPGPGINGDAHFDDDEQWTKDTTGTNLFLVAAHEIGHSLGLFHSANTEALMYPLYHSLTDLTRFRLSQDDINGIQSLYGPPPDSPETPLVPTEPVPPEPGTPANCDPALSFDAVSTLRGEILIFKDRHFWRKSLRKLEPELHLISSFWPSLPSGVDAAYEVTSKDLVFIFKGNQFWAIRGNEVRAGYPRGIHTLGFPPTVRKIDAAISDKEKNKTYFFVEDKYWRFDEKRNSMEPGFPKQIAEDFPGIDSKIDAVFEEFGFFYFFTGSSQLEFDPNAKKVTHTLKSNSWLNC

bovine trypsin, sequence (P00760 24-246): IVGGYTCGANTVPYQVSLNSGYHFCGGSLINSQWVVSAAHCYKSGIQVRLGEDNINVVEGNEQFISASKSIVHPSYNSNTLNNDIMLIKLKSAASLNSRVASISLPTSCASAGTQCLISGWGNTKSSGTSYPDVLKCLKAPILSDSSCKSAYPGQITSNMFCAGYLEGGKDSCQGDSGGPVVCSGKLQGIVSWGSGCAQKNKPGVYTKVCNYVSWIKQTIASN

B1: Variant A2M, bait region SEQ ID NO 84 (other)
chain: SVSGKPQYMVLVPSLLHTETTEKGCVLLSYLNETVTVSASLESVRGNRSLFTDLEAENDVLHCVAFAVPKSSSNEEVMFLTVQVKGPTQEFKKRTTVMVKNEDSLVFVQTDKSIYKPGQTVKFRVVSMDENFHPLNELIPLVYIQDPKGNRIAQWQSFQLEGGLKQFSFPLSSEPFQGSYKVVVQKKSGGRTEHPFTVEEFVLPKFEVQVTVPKIITILEEEMNVSVCGLYTYGKPVPGHVTVSICRKYSDASDCHGEDSQAFCEKFSGQLNSHGCFYQQVKTKVFQLKRKEYEMKLHTEAQIQEEGTVVELTGRQSSEITRTITKLSFVKVDSHFRQGIPFFGQVRLVDGKGVPIPNKVIFIRGNEANYYSNATTDEHGLVQFSINTTNVMGTSLTVRVNYKDRSPCYGYQWVSEEHEEAHHTAYLVFSPSKSFVHLEPMSHELPCGHTQTVQAHYILNGGTLLGLKKLSFYYLIMAKGGIVRTGTHGLLVKQEDMKGHFSISIPVKSDIAPVARLLIYAVLPTGDVIGDSAKYDVENCLANKVDLSFSPSQSLPASHAHLRVTAAPQSVCALRAVDQSVLLMKPDAELSASSVYNLLPEKDLTGFPGPLNDQDDEDCINRHNVYINGITYTPVSSTNEKDMYSFLEDMGLKAFTNSKIRKPKMCPQLEQYEMHGPEGLRVGKEEEGLGSIPENFFGVSELEGRGSKLRKYFPETWIWDLVVVNSAGVAEVGVTVPDTITEWKAGAFCLSEDAGLGISSTASLRAFQPFFVELTMPYSVIRGEAFTLKATVLNYLPKCIRVSVQLEASPAFLAVPVEKEQAPHCICANGRQTVSWAVTPKSLGNVNFTVSAEALESQELCGTEVPSVPEHGRKDTVIKPLLVEPEGLEKETTFNSLLCPSGGEVSEELSLKLPPNVVEESARASVSVLGDILGSAMQNTQNLLQMPYGCGEQNMVLFAPNIYVLDYLNETQQLTPEIKSKAIGYLNTGYQRQLNYKHYDGSYSTFGERYGRNQGNTWLTAFVLKTFAQARAYIFIDEAHITQALIWLSQRQKDNGCFRSSGSLLNNAIKGGVEDEVTLSAYITIALLEIPLTVTHPVVRNALFCLESAWKTAQEGDHGSHVYTKALLAYAFALAGNQDKRKEVLKSLNEEAVKKDNSVHWERPQKPKAPVGHFYEPQAPSAEVEMTSYVLLAYLTAQPAPTSEDLTSATNIVKWITKQQNAQGGFSSTQDTVVALHALSKYGAATFTRTGKAAQVTIQSSGTFSSKFQVDNNNRLLLQQVSLPELPGEYSMKVTGEGCVYLQTSLKYNILPEKEEFPFALGVQTLPQTCDEPKAHTSFQISLSVSYTGSRSASNMAIVDVKMVSGFIPLKPTVKMLERSNHVSRTEVSSNHVLIYLDKVSNQTLSLFFTVLQDVPVRDLKPAIVKVYDYYETDEFAIAEYNAPCSKDLGNADYKDDDDKGASHHHHHH
- Protease Inhibition (% of WT) (Elastase): 75 % of WT
- Protease Inhibition (% of WT) (bovine trypsin): 100 % of WT
- Protease Inhibition (% of WT) (chymotrypsin): 71 % of WT
- Protease Inhibition (% of WT) (MMP2): 120 % of WT
- Protease Inhibition (% of WT) (ADAMTS4): 70 % of WT
- Protease Inhibition (% of WT) (MMP1): 180 % of WT
- Protease Inhibition (% of WT) (ADAMTS5): 250 % of WT
- Protease Inhibition (% of WT) (MMP12): 100 % of WT
- Protease Inhibition (% of WT) (MMP8): 350 % of WT
- Protease Inhibition (% of WT) (MMP13): 720 % of WT
- Protease Inhibition (% of WT) (MMP9): 60 % of WT
- Protease Inhibition (% of WT) (MMP3): 170 % of WT

B2: Variant A2M, bait region SEQ ID NO 90 (other)
chain: SVSGKPQYMVLVPSLLHTETTEKGCVLLSYLNETVTVSASLESVRGNRSLFTDLEAENDVLHCVAFAVPKSSSNEEVMFLTVQVKGPTQEFKKRTTVMVKNEDSLVFVQTDKSIYKPGQTVKFRVVSMDENFHPLNELIPLVYIQDPKGNRIAQWQSFQLEGGLKQFSFPLSSEPFQGSYKVVVQKKSGGRTEHPFTVEEFVLPKFEVQVTVPKIITILEEEMNVSVCGLYTYGKPVPGHVTVSICRKYSDASDCHGEDSQAFCEKFSGQLNSHGCFYQQVKTKVFQLKRKEYEMKLHTEAQIQEEGTVVELTGRQSSEITRTITKLSFVKVDSHFRQGIPFFGQVRLVDGKGVPIPNKVIFIRGNEANYYSNATTDEHGLVQFSINTTNVMGTSLTVRVNYKDRSPCYGYQWVSEEHEEAHHTAYLVFSPSKSFVHLEPMSHELPCGHTQTVQAHYILNGGTLLGLKKLSFYYLIMAKGGIVRTGTHGLLVKQEDMKGHFSISIPVKSDIAPVARLLIYAVLPTGDVIGDSAKYDVENCLANKVDLSFSPSQSLPASHAHLRVTAAPQSVCALRAVDQSVLLMKPDAELSASSVYNLLPEKDLTGFPGPLNDQDDEDCINRHNVYINGITYTPVSSTNEKDMYSFLEDMGLKAFTNSKIRKPKMCPQLEQYEMHGPEGLRVGSELEGRGSFYESDVMGRGHARLVHVEEPHTKLLRKYFPETWIWDLVVVNSAGVAEVGVTVPDTITEWKAGAFCLSEDAGLGISSTASLRAFQPFFVELTMPYSVIRGEAFTLKATVLNYLPKCIRVSVQLEASPAFLAVPVEKEQAPHCICANGRQTVSWAVTPKSLGNVNFTVSAEALESQELCGTEVPSVPEHGRKDTVIKPLLVEPEGLEKETTFNSLLCPSGGEVSEELSLKLPPNVVEESARASVSVLGDILGSAMQNTQNLLQMPYGCGEQNMVLFAPNIYVLDYLNETQQLTPEIKSKAIGYLNTGYQRQLNYKHYDGSYSTFGERYGRNQGNTWLTAFVLKTFAQARAYIFIDEAHITQALIWLSQRQKDNGCFRSSGSLLNNAIKGGVEDEVTLSAYITIALLEIPLTVTHPVVRNALFCLESAWKTAQEGDHGSHVYTKALLAYAFALAGNQDKRKEVLKSLNEEAVKKDNSVHWERPQKPKAPVGHFYEPQAPSAEVEMTSYVLLAYLTAQPAPTSEDLTSATNIVKWITKQQNAQGGFSSTQDTVVALHALSKYGAATFTRTGKAAQVTIQSSGTFSSKFQVDNNNRLLLQQVSLPELPGEYSMKVTGEGCVYLQTSLKYNILPEKEEFPFALGVQTLPQTCDEPKAHTSFQISLSVSYTGSRSASNMAIVDVKMVSGFIPLKPTVKMLERSNHVSRTEVSSNHVLIYLDKVSNQTLSLFFTVLQDVPVRDLKPAIVKVYDYYETDEFAIAEYNAPCSKDLGNADYKDDDDKGASHHHHHH
- Protease Inhibition (% of WT) (Elastase): 550 % of WT
- Protease Inhibition (% of WT) (bovine trypsin): 100 % of WT
- Protease Inhibition (% of WT) (chymotrypsin): 80 % of WT
- Protease Inhibition (% of WT) (MMP2): 110 % of WT
- Protease Inhibition (% of WT) (ADAMTS4): 70 % of WT
- Protease Inhibition (% of WT) (MMP1): 50 % of WT
- Protease Inhibition (% of WT) (ADAMTS5): 350 % of WT
- Protease Inhibition (% of WT) (MMP12): 100 % of WT
- Protease Inhibition (% of WT) (MMP8): 110 % of WT
- Protease Inhibition (% of WT) (MMP13): 700 % of WT
- Protease Inhibition (% of WT) (MMP9): 100 % of WT
- Protease Inhibition (% of WT) (MMP3): 110 % of WT
